# Measurements taken from publication PMC4652282, “An Efficient Site-Specific Method for Irreversible Covalent Labeling of Proteins with a Fluorophore”.
# Residue numbers refer to the chain shown, from its start.
# B1: G/T mismatch DNA (SPR) (dsDNA)
# DNA 1: AACTATAGGGCGAATTGGGTACCGCTGAATTGCACCGAGCTTGATCCTCGATGATCCTAAGCTAAGCTTCAGCTCCAGCTTT
# DNA 2: AAAGCTGGAGCTGAAGCTTAGCTTAGGATCATCGAGGATCGAGCTCGGTGCAATTCAGCGGTACCCAATTCGCCCTATAGTT
# Assays:
# Settings in all cases: protein: recombinant; tags: C-terminal SS-his6-GG-ald6 (LCTPSR); chain copies: 2; blunt, one internal G/T mismatch
# [1] = molecular target: T1, EcMutS-his6/ald6(D835R,R840E), unlabeled (Escherichia coli, UniProt P23909 1-853, D835R;R840E); assay: SPR; kon 9.48e5 M-1 s-1; koff 33.02e-4 s-1; koff with ATP 0.48 s-1; SPR at 25 C, buffer not shown; EMSA: 25 mM Hepes (GS Buffer, rest not shown), on ice 15 min
# T1 sequence: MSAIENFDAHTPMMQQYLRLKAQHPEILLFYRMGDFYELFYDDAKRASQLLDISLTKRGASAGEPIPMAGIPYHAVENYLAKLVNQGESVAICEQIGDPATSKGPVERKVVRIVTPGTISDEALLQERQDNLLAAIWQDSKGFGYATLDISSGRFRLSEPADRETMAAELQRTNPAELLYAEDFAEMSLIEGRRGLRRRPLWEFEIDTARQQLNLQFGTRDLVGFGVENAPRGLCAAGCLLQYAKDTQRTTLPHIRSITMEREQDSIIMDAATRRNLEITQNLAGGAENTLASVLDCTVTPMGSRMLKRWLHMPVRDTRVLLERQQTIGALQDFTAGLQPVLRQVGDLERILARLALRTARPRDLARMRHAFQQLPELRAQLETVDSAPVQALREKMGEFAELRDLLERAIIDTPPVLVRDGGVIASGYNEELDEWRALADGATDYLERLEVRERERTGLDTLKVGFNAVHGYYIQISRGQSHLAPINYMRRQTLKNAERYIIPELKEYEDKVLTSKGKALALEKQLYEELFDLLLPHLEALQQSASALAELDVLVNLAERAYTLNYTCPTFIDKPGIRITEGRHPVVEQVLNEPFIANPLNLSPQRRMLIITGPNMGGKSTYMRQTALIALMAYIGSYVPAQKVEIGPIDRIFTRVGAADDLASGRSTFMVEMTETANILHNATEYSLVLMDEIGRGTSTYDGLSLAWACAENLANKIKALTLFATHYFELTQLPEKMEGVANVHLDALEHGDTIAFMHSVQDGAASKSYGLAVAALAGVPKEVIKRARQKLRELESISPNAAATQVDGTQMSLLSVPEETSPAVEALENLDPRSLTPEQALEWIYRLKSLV
# [2] = molecular target: T2, EcMutS-his6/ald6(D835R,R840E), AF555-labeled (Escherichia coli, UniProt P23909 1-853, D835R;R840E); assay: SPR; kon 4.37e5 M-1 s-1; koff 24.48e-4 s-1; koff with ATP 0.45 s-1; SPR at 25 C, buffer not shown; EMSA: 25 mM Hepes (GS Buffer, rest not shown), on ice 15 min
# T2 sequence: T1 sequence
# [3] = molecular target: T3, EcMutS-his6/ald6, unlabeled (Escherichia coli, UniProt P23909 1-853); assay: SPR; kon 5.29e5 M-1 s-1; koff 6.10e-4 s-1; koff with ATP 0.53 s-1; SPR at 25 C, buffer not shown; EMSA: 25 mM Hepes (GS Buffer, rest not shown), on ice 15 min
# T3 sequence: T1 sequence with R835D, E840R
# [4] = molecular target: T4, EcMutS-his6/ald6, AF647-labeled (Escherichia coli, UniProt P23909 1-853); assay: SPR; kon 3.44e5 M-1 s-1; koff 8.93e-4 s-1; koff with ATP 0.26 s-1; SPR at 25 C, buffer not shown; EMSA: 25 mM Hepes (GS Buffer, rest not shown), on ice 15 min
# T4 sequence: T1 sequence with R835D, E840R
binder,measurement,setting,value
B1,Kd,[1],3.85 ± 1.78 nM
same,Kd,[2],5.75 ± 1.51 nM
same,Kd,[3],1.25 ± 0.53 nM
same,Kd,[4],2.63 ± 0.49 nM
